Measurements: the DeepSol protein solubility set

Assay: soluble on expression in E. coli; label from the status in PepcDB or PDB records

Q: For “MFRRLGEKTTLYRAESPSQNSLASHHNSEVSLPSVDYSQEDRHSCNTLIGDEWSQNGDVIIQPLQKPSNTPTTQYERIITRREIANTESDLCKKLSLIVDLVSDFANDANRLYEGADELLKELRTKIRVYIYFLDVEMADVEKLLRFNVDRSTICDERIDWLLHFTKCHKEMRRVLNELSEEVCEDLESCLEMRAKGVIGKKPSSIILSTLSGMRNGMMTASKLLGCLPRQRA”, which “soluble on expression in E. coli” value is on record?
A: not soluble

Q: With “MQHHKVAIIGAGAAGIGMAITLKDFGITDVIILEKGTVGHSFKHWPKSTRTITPSFTSNGFGMPDMNAISMDTSPAFTFNEEHISGETYAEYLQVVANHYELNIFENTVVTNISADDAYYTIATTTETYHADYIFVATGDYNFPKKPFKYGIHYSEIEDFDNFNKGQYVVIGGNESGFDAAYQLAKNGSDIALYTSTTGLNDPDADPSVRLSPYTRQRLGNVIKQGARIEMNVHYTVKDIDFNNGQYHISFDSGQSVHTPHEPILATGFDATKNPIVQQLFVTTNQDIKLTTHDESTRYPNIFMIGATVENDNAKLCYIYKFRARFAVLAHLLTQREGLPAKQEVIENYQKNQMYLDDYSCCEVSCTCLEHHHHHH” as the sequence, how does the “soluble on expression in E. coli” value read?
A: soluble

Q: With “MGSDKIHHHHHHMNREVVIVGGGPAGMLMGLLLAKEKIQVTVLEKNTTFNRDFRGETIAPGSVFLLKKLGVFKALEEHGFIKVQKIKMYDREEKLFSVNFDDFNHPQKFGIDIPQPVVLEALKQKASSYPNFEYIHGATCTDLIKDGEKVVGIRYSKEKEEHQIKCRLVIGAEGRFSRLRTLGHFAVEKKEFSRDLIWFKVPKPEGWEEGNLIKVYKHDHVIILPTYPNDLRVGTYIYLGGNRETKAKGIAAFIDKVCMIEPRLRKPMEKHIKSWDDTTLLKIFTAHVDQWAKDGLILIGDAAHTLSPILGQGVNIAMQDAFELLPYVNSGLKTYEGPLPAHHFDDYISKRKKQVSFVAGFQERQEQNLAASTPFQCMLRKVKMKLLDKAPFKIKVMKKLQYGVVANETTEGLT” as the sequence, how does the “soluble on expression in E. coli” value read?
A: not soluble

Q: Which “soluble on expression in E. coli” value does the source give for “MQARWIGNMMFHVRTDSNHDVLMDTKEEVGGKDAAPRPLELVLTGLMGCTGMDVVSILRKMKVIDQMKDFRIEIEYERTEEHPRIFTKVHLKYIFKFDGEPPKDKVEKAVQLSQEKYCSVSAILKCSSKVTYEIVYEN” here?
A: not soluble

Q: For “MSKEDFVIKPEAAGASTDTSEWPLLLKNFDKLLVRSGHYTPIPAGSSPLKRDLKSYISSGVINLDKPSNPSSHEVVAWIKRILRCEKTGHSGTLDPKVTGCLIVCIDRATRLVKSQQGAGKEYVCIVRLHDALKDEKDLGRSLENLTGALFQRPPLISAVKRQLRVRTIYESNLIEFDNKRNLGVFWASCEAGTYMRTLCVHLGMLLGVGGHMQELRRVRSGALSENDNMVTLHDVMDAQWVYDNTRDESYLRSIIQPLETLLVGYKRIVVKDSAVNAVCYGAKLMIPGLLRYEEGIELYDEIVLITTKGEAIAVAIAQMSTVDLASCDHGVVASVKRCIMERDLYPRRWGLGPVAQKKKQMKADGKLDKYGRVNENTPEQWKKEYVPLDNAEQSTSSSQETKETEEEPKKAKEDSLIKEVETEKEEVKEDDSKKEKKEKKDKKEKKEKKEKKDKKEKKEKKEKKRKSEDGDSEEKKSKKSKK”, which “soluble on expression in E. coli” value is on record?
A: not soluble

Q: With “MVQESTMICVDNSEYMRNGDFQPTRLQSQQDAVNLVTQCKLRANPENAVGILSMANSVQVLSSLSTEQGRLMMKNHSIEPFGKCNFIAGIKIAHLALKHRQNRNHKMRVVLFIGSPLEEIEMNELVKIAKKMKKEKVLCDVIMFGENESDGHEKFSTFVDTLNGKEGSGSSLIVVPQGSSLTDALLQSSVCKNEDGQAAFGGGGNGMDNAFGMDVENDPDLALALRVSMEEERARQAAAAAANGGAADSGADAEVAAAAAAVPLEEMDMGAMTEEQQLEWALRLSMQENAPAEQPQVQHEQMDVDGAPAVGGDNLDDLMNNPELLQQIVDDLPAANAEKDDDKEKK” as the sequence, how does the “soluble on expression in E. coli” value read?
A: not soluble

Q: With “MGSDKIHHHHHHMYYRPADGHGLPHNPFNAIVSPRPIGWISTRGEGGGDNLAPYSFFNAVAYEPPQVMFSSTSAKEDRGDTKDSVANIRETGVFCVNIVEYAARDAMNETSGPWPATEDEFQRAGIERADCTEIPCSRVASAPANLECRVTQIIKLEGAHNFAVFGEVVGVHIRDDVLVDGHFDVTRFNPLTRMGYRDYSVIRDVFSLKRPGE” as the sequence, how does the “soluble on expression in E. coli” value read?
A: not soluble

Q: For “MGSDKIHHHHHHMTKKLPIGIQTFREIREESYYYVDKTSFALKLAMEGKYYFLSRPRRFGKSLFLDTLAELFAGNEALFHGLYCHDRWDWSVRYPIIRLSFAEGWLESRAQLDKRICWLLEQNQQRLGVTCKQESDIPGSFAELLQNAEAKYGQRCVVLVDEYDKPILDNITEPEIARAMREGLRNLYSVIKGQDAHIRFAFLTGVSKFSKVSIFSGLNNLNDITIDADYSAICGYTDEDVDTVFAPELPGLDRQQIQDWYNGYNWTGQPVYNPFDLLLLFDKREFRAYWFETGTPTFLVDWLMQRGYFTPSLSRQYSSLELLSAFDVDHIEPEALLFQTGYTTLQGVEEYLPGQRIYWLGYPNKEVQISLNNALLPALGIEGQKVLTHRIRLLELLRANNFAGLQQLFTSFFASIPHDWYRNNPIAQYEGYYASVFYSHFAALGLDIVVEDTTHHGRIDMAVTFNANVYLFEFKVVELVPEGHALEQLKTKGYAEKYKIRNEPIYLIGAEFSKDSRSVVAFDVELFA”, which “soluble on expression in E. coli” value is on record?
A: not soluble

Q: With “MGSDKIHHHHHHMVSKMTNQRVLTVPGGINFRELGGYSTKDGRKIKWHKVIRTGGLDQLTPTGQALLDDYGVRYDIDFRSPQEVLDAPDRIPANAKYVYAPVFNVDETRNSDGTDKMTANLEKHPDSGFKHMLKVYQMVADEQHAKDEYRRFFDNLLANDQPDSTLLFHCTAGKDRTGMGAVYLLTALGVDFETIKQDYLLTNQASIGRINGAMAEARAQGASDATVESIRALWSVDADYLDAAMTEIKRQSGNLNHYLHTELKLTNNEINDLQRIYLE” as the sequence, how does the “soluble on expression in E. coli” value read?
A: not soluble

Q: Which “soluble on expression in E. coli” value does the source give for “MGSDKIHHHHHHMKLRYIFYGLTSGLLFGLSSCSLNYDPIDTYSDVTEGVTDTGTKVVFKDKAAVESHLTTIYNQMRDRQEHWYVDLLLISDSHADNAYAGTTGAEVLPFENNSIEGSNSVLERDWNRYLEDVARANKLICNIDLVTDNSLTTAERAQYKAEAMIFRAMVMFDMVRLWGDFPVITTVADDITSENIEDVYEQYFPAQNTELEAYQQIEKDLLAAIQHAPDNTAGNKTLFTKSVARTLLAKIYAEKPLRDYSKVIRYCDEVKADGFELVKDFSDLFGMNAAGTDAKARNTKESILEAQFTPGSGNWCTWMFGRDLVNWNNNFTWAKWVTPSRDLINAFKKEGDQIRFQESVVYYDCNWSNYYPSDNYPFMYKCRSANSSIIKYRYADVLLLKAEALIMQDTPDLEAAAKIIDEVRERAGLGELSSSVRKDRDAMITALLNERRLELAFEGQRWFDLVRLDKVEEVMNAVYAKDSGRKSQVYAFDKNSYRLPIPQSVIDANDKIEQNPGY” here?
A: not soluble

Q: With “MESALQKAAGEGMDEFIQVFTDKYKEIIGGELTADTMPLLTGEQHSLLAYQIFRDEIMFGGFCQLIQNGYGGYIFDNPFAKVMRLWGAEEFSKLVYKAKKIYDANRKDLEKERTDDEFMAMYEQYEAFDDLEEAYLDMEEQVTTLVASYVDNHLELFAKIIK” as the sequence, how does the “soluble on expression in E. coli” value read?
A: not soluble

Q: With “MKSEKETIYDYAAELKLLSFKEELECTLSLAAEENWNHLQFLTELLGKESARRRECRRRSRIRSAGFPQMKYLHELVMEDMPKEAQVILPELETLDFIRQGRNLVLYGNPGTGKTHIATALGIKACQQDFTVLFTSVPVLLTQIREAKSAKTLRTLQLRFEKYDLVICDEFGYVSCDKEGGELLFNHLSLRAGKKATIITTNLAFNRWNEIIKDKVLVAAMVDRLTHKAYLVNMTGLSYRLKETQKMRQDKLEHHHHHH” as the sequence, how does the “soluble on expression in E. coli” value read?
A: not soluble

Q: Which “soluble on expression in E. coli” value does the source give for “METTQKDELSSFLSVLPPVDFCCVYGSTLHPNNQDKSKMVDYILGVSDPIKWHSANLKMNSDHYASWMVHLGGARLITNVADKVGVGVHFNPFVNWNDRKLKYGVVRMHDLVQDILDWKRFYLSGRLQKPVHMLVDNLDIEDVNSVNKRAAISAALLLLPSKFTEEDLYAKICSLSYMGDLRMFFAEDTNKVNKIVKGQFDLFQSMYKPFLEECETKNLLRFSSAEASHTKLVQDSSLSATRSLVSSLPASVRSQMGKSLGEKKFVSETGRVMGEVCISSREEAAKCMEKVMRRRVMVSSGRQAVSGFLAAGAINATMYLSQKMRKAWNSRA” here?
A: soluble

Q: For “MKPKKLSLLLTILPMIIAATGCHSQQESKVDITPHCINLQADSLYRQAMTLMESSCDVDSTRKCIRFLDKALAIDSLNPDYYGMKAKLLSEMGELDSALYIQTLAMEKNAITGEYLFQLGLLQAAKDMHAEAHESFGKSKVFLQAVLKQYPDSLGAFILAEAANSLYENKDSLFMRNIDEIRKRFPERLLEIEMTRRVKPHSLVNQIRRIKIEKDYNIDFDMDSLVEATVNKDLEHHHHHH”, which “soluble on expression in E. coli” value is on record?
A: not soluble

Q: Which “soluble on expression in E. coli” value does the source give for “MAVIYYDKDADLNLIKDKKIAIIGYGSQGHAHALNLKDSGLNVVVGLREGSKSWKKAEEQGLTVKTIEEAAKEADIIMILIPDEHQPEIYKKYIEKHLTEGKMLMFAHGFNIHYHQIIPPKNVDVTMIAPKSPGHIVRREYVEGRGVPALVAVYQDYTGKAKDIALAYAKGIGVTRAGVIETTFKEETETDLFGEQAVLCGGVTALIKAGFETLVDAGYQPEIAYFECLNELKLIVDLIYEGGLSFMRYSVSNTAEYGDYISQEKIVTKEVRENMKQMLKDIQTGKFAKDWILENQAGRPYFYTMRKKESEHLIEKVGKELRKMMPWLKERNVDEE” here?
A: soluble

Q: Which “soluble on expression in E. coli” value does the source give for “MTKLHDISEHEKAIDFSIYLDSLPQYQHLASQDESHRHRALGIYSDFLSEENKSKRAALQNYKNYISLTERDPNQLAYPELQETRIDAVFSPDFMGSFAKSNGRHEETPMDGPGGYDMRSYLPYQTAPSGSLGNISTASSSCSSPPGTPAPSGKGRSPQAGGKMTSSGKGKKRLDKDSDEYRQRRERNNLAVRKSRDKAKMRNLETQHKVLELAAENDRLQKRVEQLSRELATLRNLLSATGQC” here?
A: not soluble

Q: For “MGSDKIHHHHHHLIIDANIYWLPNEIFVSEEMTNHFLRVVPREYGVYAYQREKNKNEREFVIEKPEGSENLNYFQGDYDLSVQLENMDQAGVDTGVMKLPGCQEWLDLDLCIQFNNQMAETVKKSKGRFRALAVVPPSGDADTLRELKRCIKELHMNGLQLSAHYGNKYLDDPMFRPLLKCASDLNIPVYVHHTPVPVEYNSLADYNNLRRSYGRCEDQTIAVTREIFSGMFKELPNLKMIHSMLGGGYFAYKNMFFPNDSGHGRFDANTSDVARSLKDNIYFEMSHAQPWGKAELKCAVEVLGADHIIYGSSYPVKKDWLIGGPQYVGDLPISQDEKDMLLFKNAERIYGIK”, which “soluble on expression in E. coli” value is on record?
A: not soluble

Q: Which “soluble on expression in E. coli” value does the source give for “MQGEDRWADIREMNDRLIACERCPRLVEFRKAVVGRDKRFRGETYWARPVPGYGDINGRLLIVGLAPAASGGNRTGRVFTGDKSSDFLVSCLHEAGITNQPTSERRDDGLIYYDAYITAAVKCVPPDNKPLPEEIENCSVYLRSEIGFMKNLKVILVLGQIALQAVVRLIADPAEPRSRYRFVHGAVYSMNGIRVVCSYHPSPRNVNTGKLKRSDFVDLLKKVKEMALE” here?
A: not soluble

Q: With “MSDVIEQYFVKNEPYYRPVADEVKLYEAAYSVRMPMMLKGPTGCGKTRFVEYMAWKLGKPLITVACNEDMTASDLVGRFLLDAQGTRWQDGPLTTAARYGAICYLDEVVEARQDTTVVIHPLTDNRRVLPLEKKGELVGAHPDFQLVISYNPGYQSLMKDLKQSTKQRFGALDFNYPQHDIETEIVSHETGIDSAIADKLVSIAERARNLKGHGLDEGISTRMLIYAGNLIAKGVDVHAACRMALVRPITDDPDMRDALDAAVTTFFLEHHHHHH” as the sequence, how does the “soluble on expression in E. coli” value read?
A: soluble

Q: Which “soluble on expression in E. coli” value does the source give for “MRFSIVSLLHRLFLAGALALAAGAQAAPDPMGPPDKFVLDAATQTIDILKSDQNVKAGNLAHINQVVDAHILPFVNFQKTTRLAAGRYWRQATDTQKAELAKAFRGTLVRTYSGALTKVDNGTTIKLLPFRGDPNADDVVVRSLISQSNSQPVQVDYRLEKTPQGWRIYDMNVEGIWLIENYRNQFAQQINQNGIDGLIQALNQRNQAAALEHHHHHH” here?
A: soluble
